Experimental data as given in patent US20230227514A1, “BETA-ARRESTIN COMPOSITIONS AND ASSOCIATED METHODS” (Duke University, priority 2020, published 2023).

Key:
β2AR [1] = target: T1, β2AR (Homo sapiens, UniProt P07550); assay: Confocal trafficking and colocalization with β2AR; assay type: cell-based; conditions: HEK-293 cells with stable β2AR expression; agonist up to 20 minutes
T1 construct: Flag (N); expressed in transfected cells
Protocol: (§1) Immunostaining and confocal microscopy. […] Twenty-four hours post-transfection, cells were serum-starved for 4 h, and either left untreated or treated with respective agonists for the indicated times in the Figure descriptions. After stimulation, cells were fixed with 5% formaldehyde diluted in phosphate-buffered saline (PBS), permeabilized with 0.1% Triton in PBS containing 2% bovine serum albumin for 20 min and incubated at room temperature with appropriate primary antibody. The next day, cells were washed three times with PBS and incubated with Alexa594 conjugated secondary antibody for 1 h, followed by repeated washes using PBS. Confocal images were acquired using Zeiss LSM510 laser-scanning microscope using multitrack sequential with excitation (488 and 568 nm) and emission (BP 505-550 nm and LP 585 nm) filter sets. Images (1024×1024 pixels) were collected using either a 63× or 100× oil immersion lens. Images were processed for Figure presentation using Adobe Photoshop software, and any increase or decrease of brightness/contrast was applied to the entire image. The nuclear rim localization of YFP-βarrestin2-SUMO1 is readily visualized in cells with low to moderate expression of YFP-protein. In cells with high expression, this localization is present, and can be discerned by enlarging sections of the nuclear rim.
For βarrestin2-SUMO1, plasma membrane translocation was detected upon β2AR agonist activation, and, intriguingly, βarrestin2-SUMO1 was detected in endocytic vesicles. […] Confocal images were taken of cells stably expressing the β2AR and transiently expressing YFP-SUMO1 (data not shown). In both quiescent and agonist-treated cells, the SUMO1 protein remained in the nucleus. […] See Shenoy et al. 2007, supra; Shenoy and Lefkowitz. 2005. J Biol Chem 280:15315-15324; and Shenoy and Lefkowitz. 2003. J Biol Chem 278:14498-14506. Therefore, the endosomal trafficking was compared for βarrestin2-ubiquitin (βarrestin2-Ub) fusion protein and internalized β2ARs. […]

HEK-293 cells = assay: Confocal microscopy of subcellular distribution of YFP-tagged proteins; assay type: cell-based, Human; conditions: 85 cells (mYFP-βarrestin2-SUMO1) and 80 cells (mYFP-SUMO1) observed
Protocol: as §1, with “Images (1024×1024 pixels) were collected using either a 63× or 100× oil immersion lens. Images were processed for Figure presentation using Adobe Photoshop software, and any increase or decrease of brightness/contrast was applied to the entire image.” left out, “In cells with high expression, this localization is present, and can be discerned by enlarging sections of the nuclear rim.” left out
To circumvent this issue, a YFP tagged βarrestin2-SUMO1 fusion protein was generated, which would be resistant to the enzymatic activity of SENP1. YFP-βarrestin2-SUMO1 expressed in the cytoplasm akin to YFP-βarrestin2; but was also detected at the nuclear membrane (data not shown). […] While YFP-SUMO1 was concentrated in the nucleus, and nucleoli, very little βarrestin2-SUMO1 was detected in the nucleus or nucleolus. […]

β2AR [2] = target: T1, β2AR; assay: BRET titration assay of βarrestin2 construct recruitment to β2AR-Rluc; assay type: cell-based; conditions: HEK-293T cells; β2AR-Rluc with YFP acceptor constructs; isoproterenol 1 μM, 5 min; compared among βarrestin2 constructs
From the text: (§2) BRET assays. […] Titration assays were first completed, which allowed determination of the specificity of association among different interaction partners. See Nagi and Shenoy. 2019, supra; Gales et al. 2005. Nature methods 2:177-184; Nagi et al. 2015. Cellular and molecular life sciences: CMLS 72:3543-3557; Audet and Pineyro. 2011. Methods in molecular biology 756:149-163; and Rebois et al. 2006. Journal of cell science 119:2807-2818. To achieve this, a fixed amount of the donor-tagged (Renilla luciferase, Rluc) construct was co-transfected with increasing amounts of the corresponding interaction partner bearing the acceptor (YFP). […] BRET readings were acquired using Synergy Neo2 plate reader and obtained 5 min after manual addition of Rluc substrate, coelenterazine h (Promega) to a final concentration of 5 μM.
(§3) The BRET signal generated was determined by calculating the ratio of light emitted by YFP (520-550 nm) over the light emitted by Rluc (440-480 nm). These values were then corrected by subtracting the background signal (detected when the Rluc-tagged construct was expressed without acceptor) from the BRET signal detected in cells co-expressing both donor and acceptor constructs. Agonist-induced BRET values were calculated by subtracting net BRET values of non-stimulated conditions from net BRET values corresponding to the stimulated conditions. […]

V2R = target: T2, V2R (Homo sapiens, UniProt P30518); assay: BRET assay of βarrestin2 construct recruitment to V2R; assay type: cell-based; conditions: vasopressin stimulation, 15 min
T2 construct: HA (N); expressed in transfected cells
Protocol: Changes following agonist treatment are expressed as a percentage of the BRET signal observed in unstimulated cells (top panel). The histogram (bottom panel) represents Bmax values of agonist-induced BRET as means±SEM of 3 independent experiments performed in duplicates. Lack of significance (“ns”) of changes in energy transfer was evaluated using unpaired t-test.
as §2, with “119:2807-2818.” for “119:2807-2818. To achieve this, a fixed amount of the donor-tagged (Renilla luciferase, Rluc) construct was co-transfected with increasing amounts of the corresponding interaction partner bearing the acceptor (YFP).”
as §3, with “constructs.” for “constructs. Agonist-induced BRET values were calculated by subtracting net BRET values of non-stimulated conditions from net BRET values corresponding to the stimulated conditions.”

βarrestin2-SUMO1: rat βarrestin2 polypeptide fused to human SUMO1 (SEQ ID NO:1); used YFP- or Flag-tagged
colocalization / complexes with β2AR after agonist activation (confocal) (β2AR [1]): persisted with longer agonist activation | localization of YFP fluorescence at the nuclear membrane (HEK-293 cells): all cells | agonist-induced net BRET change for interaction with β2AR (β2AR [2]): highest change in the net BRET value | magnitude of interaction with activated V2R defined by BRET, versus βarrestin2 (V2R): No significant differences
